Test results as given in patent US20090191228A1.

How the values were obtained:
[1] = target: dH5-0 (recombinant hemagglutinin 5 of H5N1 strain A/Vietnam/1203/04, stock as supplied by Protein Sciences) (influenza virus H5N1 strain A/Vietnam/1203/04); experiment: ELISA, immobilized H5 forms, Fn F4-5 in solution; normalized to cdH5-0
[2] = target: dH5-0 (recombinant hemagglutinin 5 of H5N1 strain A/Vietnam/1203/04, stock as supplied by Protein Sciences) (influenza virus H5N1 strain A/Vietnam/1203/04)

Substance	Normalized affinity, kD (%) [1] [%]	Bmax [2]	Kd [2] [nM]
fourth and fifth finger domain of fibronectin (Fn F4-5) (from UniProt P02751 183-275)	103	–	–
tissue type plasminogen activator (tPA) (from UniProt P00750 36-562) (enzyme)	–	0.32	96
